Data as given in patent US20090074780A1 (ESBATECH AN ALCON BIOMEDICAL RESEARCH UNIT, published 2009).

Key:
[1] = target: antigen of ESBA105 (not named in the examples) (UniProt P01375); test: assay not described
[2] = target: T1, antigen of ESBA105 (not named in the examples) (UniProt P01375 77-233, limits assumed); test: assay not described
[3] = target: T1, antigen of ESBA105 (not named in the …); test: assay not described; reference itself

T1 sequence (P01375 77-233 limits assumed): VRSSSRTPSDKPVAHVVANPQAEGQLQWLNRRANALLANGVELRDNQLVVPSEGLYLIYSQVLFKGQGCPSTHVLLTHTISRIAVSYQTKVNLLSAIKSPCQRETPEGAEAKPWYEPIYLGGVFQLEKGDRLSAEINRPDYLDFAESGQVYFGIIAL
Sequence of antigen of ESBA105 (not named in the examples) (UniProt P01375) (P01375 77-233 limits assumed): as above

In the case of ESBA105_VL V3Q (scFv), the Binding Activity (relative to parental ESBA105) (relative to parental ESBA105) [1] is reported as 1.2.

ESBA105 VH V103T (scFv) was tested, and the Activity relative to ESBA105 (relative to ESBA105) [1] was 1.2.

B1: ESBA105_QC15.2 (scFv, V domains shown)
VH: QVQLVQSGAEVKKPGASVKVSCTASGYTFTHYGMNWVRQAPGRGLEWMGWINTYTGEPTYADKFKDRITFSLETSASTVYMELTSLTSDDTAVYYCARERGDAMDYWGQGTLVTVSS
VL: DIVMTQSPSSLSASVGDRVTLTCTASQSVSNDVVWYQQRPGKAPKLLIYSAFNRYTGVPSRFSGRGYGTDFTLTISSLQPEDVAVYYCQQDYNSPRTFGQGTKLEVK
In the case of B1, the “Binding Activity (relative to parental ESBA105)” value [2] is reported as 1 relative to parental ESBA105.

B2: ESBA105 (scFv)
chain: MADIVMTQSPSSLSASVGDRVTLTCTASQSVSNDVVWYQQRPGKAPKLLIYSAFNRYTGVPSRFSGRGYGTDFTLTISSLQPEDVAVYYCQQDYNSPRTFGQGTKLEVKRGGGGSGGGGSGGGGSSGGGSQVQLVQSGAEVKKPGASVKVSCTASGYTFTHYGMNWVRQAPGKGLEWMGWINTYTGEPTYADKFKDRFTFSLETSASTVYMELTSLTSDDTAVYYCARERGDAMDYWGQGTLVTVSS
B2 was tested, and the “Activity relative to ESBA105” value [3] was 1 relative to ESBA105.
